B1: Carboxypeptidase Y (Saccharomyces cerevisiae), P00729 (parent)
chain: MKAFTSLLCGLGLSTTLAKAISLQRPLGLDKDVLLQAAEKFGLDLDLDHLLKELDSNVLDAWAQIEHLYPNQVMSLETSTKPKFPEAIKTKKDWDFVVKNDAIENYQLRVNKIKDPKILGIDPNVTQYTGYLDVEDEDKHFFFWTFESRNDPAKDPVILWLNGGPGCSSLTGLFFELGPSSIGPDLKPIGNPYSWNSNATVIFLDQPVNVGFSYSGSSGVSNTVAAGKDVYNFLELFFDQFPEYVNKGQDFHIAGESYAGHYIPVFASEILSHKDRNFNLTSVLIGNGLTDPLTQYNYYEPMACGEGGEPSVLPSEECSAMEDSLERCLGLIESCYDSQSVWSCVPATIYCNNAQLAPYQRTGRNVYDIRKDCEGGNLCYPTLQDIDDYLNQDYVKEAVGAEVDHYESCNFDINRNFLFAGDWMKPYHTAVTDLLNQDLPILVYAGDKDFICNWLGNKAWTDVLPWKYDEEFASQKVRNWTASITDEVAGEVKSYKHFTYLRVFNGGHMVPFDVPENALSMVNEWIHGGFSL
partner: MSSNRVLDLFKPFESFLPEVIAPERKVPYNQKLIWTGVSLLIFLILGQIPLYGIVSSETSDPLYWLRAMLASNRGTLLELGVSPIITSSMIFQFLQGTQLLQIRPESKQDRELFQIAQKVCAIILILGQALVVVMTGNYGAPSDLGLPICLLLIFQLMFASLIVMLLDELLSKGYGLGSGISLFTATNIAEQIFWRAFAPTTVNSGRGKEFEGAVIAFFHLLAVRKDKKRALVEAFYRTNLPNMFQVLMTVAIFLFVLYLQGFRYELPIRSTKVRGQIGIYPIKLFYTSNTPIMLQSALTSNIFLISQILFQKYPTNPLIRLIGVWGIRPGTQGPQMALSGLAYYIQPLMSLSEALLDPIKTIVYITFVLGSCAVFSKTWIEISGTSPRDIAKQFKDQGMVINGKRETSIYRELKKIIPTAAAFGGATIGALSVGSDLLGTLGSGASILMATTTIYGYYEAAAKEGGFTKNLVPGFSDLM

Variants of: B1
Conditions: with sc61a_yeast SEC61, P32915

effect of a mutation on the interaction | Variant
increasing interaction | G255R

Reference: IntAct's records for PubMed 19696741
